From the RNAGym collection of RNA variant scans (doi:10.7554/elife.80360)

B1: HDV Ribozyme (parent)
chain: GGCCGGCAUGGUCCCAGCCUCCUCGCUGGCGCCGGCUGGGCAACAUUCCGAGGGGACCGUCCCCUCGGUAAUGGCGAAUGGGACCCA

Variants of: B1
Test: self-cleavage, relative activity (ratio to wild type); higher = more cleavage; co-transcriptional

**Q.** Which self-cleavage does the source give for GGCCGGCAUGGUCCCAGCAUCCUCGCUGGCGCCGGCUGGGCAACAUUCCGAGGGGACCGUCCCCUCGGUAAUGGCUAAUGGGACCCA [C19A G76U] here?
**A.** 0.262

**Q.** With GGCCGGCAUGGUCCCAGCAUCCUCGCUGGCGCCGGCUGGGCAACAUUCCGAGGGGACCGUCCCCUCGGUAAUGGCCAAUGGGACCCA [C19A G76C] as the variant, how does the self-cleavage read?
**A.** 0.102

**Q.** For GGCCGGCAUGGUCCCAGCAUCCUCGCUGGCGCCGGCUGGGCAACAUUCCGAGGGGACCGUCCCCUCGGUAAUGGCGAAUGGGACACA [C19A C85A], which self-cleavage is on record?
**A.** 0.0963

**Q.** With GGCCGGCAUGGUCCCAGCAUCCUCGCUGGCGCCGGCUGGGCAACAUUCCGAGGGGACCGUCCCCUCGGUAAUGGCGAAUGGGACGCA [C19A C85G] as the variant, how does the self-cleavage read?
**A.** 0.149

**Q.** Which self-cleavage does the source give for GGCCGGCAUGGUCCCAGCAUCCUCGCUGGCGCCGGCUGGGCAACAUACCGAGGGGACCGUCCCCUCGGUAAUGGCGAAUGGGACCCA [C19A U47A] here?
**A.** 0.0554

**Q.** With GGCCGGCAUGGUCCCAGCAUCCUCGCUGGCGCCGGCUGGGCAACAUCCCGAGGGGACCGUCCCCUCGGUAAUGGCGAAUGGGACCCA [C19A U47C] as the variant, how does the self-cleavage read?
**A.** 0.148

**Q.** With GGCCGGCAUGGUCCCAGCAUCCUCGCUGGCGCCGGCUGGGCAACAUGCCGAGGGGACCGUCCCCUCGGUAAUGGCGAAUGGGACCCA [C19A U47G] as the variant, how does the self-cleavage read?
**A.** 0.0361

**Q.** With GGCCGGCAUGGUCCCAGCAUCCUCGCCGGCGCCGGCUGGGCAACAUUCCGAGGGGACCGUCCCCUCGGUAAUGGCGAAUGGGACCCA [C19A U27C] as the variant, how does the self-cleavage read?
**A.** 0.0536

**Q.** Which self-cleavage does the source give for GGCCGGCAUGGUCCCAGCAUCCUCGCAGGCGCCGGCUGGGCAACAUUCCGAGGGGACCGUCCCCUCGGUAAUGGCGAAUGGGACCCA [C19A U27A] here?
**A.** 0.312

**Q.** For GGCCGGCAUGGUCCCAGCAUCCUCGCUGGCGCCGGCUGGGCAACAUUCCGAGGGGACCGUCCCCUCGGUAAUGGCGAAUGAGACCCA [C19A G81A], which self-cleavage is on record?
**A.** 0.0449

**Q.** With GGCCGGCAUGGUCCCAGCAUCCUCGCUGGCGCCGGCUGGGCAACAUUCCGAGGGGACCGUCCCCUCGGUAAUAGCGAAUGGGACCCA [C19A G73A] as the variant, how does the self-cleavage read?
**A.** 0.0519

**Q.** Which self-cleavage does the source give for GGCCGGCAUGGUCCCAGCAUCCUCGCUGGCGCCGGCUGGGCAACAUUCCGAGGGGACCGUCCCCUCGGUAAUUGCGAAUGGGACCCA [C19A G73U] here?
**A.** 0.0631

**Q.** For GGCCGGCAUGGUCCCAGCAUCCUCGCUGGCGCCGGCUGGGCAACAUUCCGAGGGGACCAUCCCCUCGGUAAUGGCGAAUGGGACCCA [C19A G59A], which self-cleavage is on record?
**A.** 0.125

**Q.** For GGCCGGCAUGGUCCCAGCAUCCUCGCUGGCGCCGGCUGGGCAACAUUCCGAGGGGACCGUCCCCUCGGUAAUGGCGAAUGGAACCCA [C19A G82A], which self-cleavage is on record?
**A.** 0.113

**Q.** With GGCCGGCAUGGUCCCAGCAUCCUCGCUGGCGCCGGCUGGGCAACAUUCCGAGGGGACCGUCCCCUCGGUAAUGGCGAAUUGGACCCA [C19A G80U] as the variant, how does the self-cleavage read?
**A.** 0.0513

**Q.** Which self-cleavage does the source give for GGCCGGCAUGGUCCCAGCAUCCUCUCUGGCGCCGGCUGGGCAACAUUCCGAGGGGACCGUCCCCUCGGUAAUGGCGAAUGGGACCCA [C19A G25U] here?
**A.** 0.0791

**Q.** For GGCCGGCAUGGUCCCAGCAUCCUCGCUGGCGCCGGCUGGGCAACAUUCCGAGGGGACCGUCCCCUCGGUAAUGGCGAAUGGGAGCCA [C19A C84G], which self-cleavage is on record?
**A.** 0.196

**Q.** Which self-cleavage does the source give for GGCCGGCAUGGUCCCAGCAUCCUCGCUGGCGCCGGCUGGGCAACAUUCCGACGGGACCGUCCCCUCGGUAAUGGCGAAUGGGACCCA [C19A G52C] here?
**A.** 0.125

**Q.** With GGCCGGCAUGGUCCCAGCAGCCUCGCUGGCGCCGGCUGGGCAACAUUCCGAGGGGACCGUCCCCUCGGUAAUGGCGAAUGGGACCCA [C19A U20G] as the variant, how does the self-cleavage read?
**A.** 0.217

**Q.** Which self-cleavage does the source give for GGCCGGCAUGGUCCCAGCAUCCUCGCUGGCGCCGGCCGGGCAACAUUCCGAGGGGACCGUCCCCUCGGUAAUGGCGAAUGGGACCCA [C19A U37C] here?
**A.** 0.0845

**Q.** With GGCCGGCAUGGUCCCAGCAUCCUCGCUGGCGCCGGCUGGGCAACAUUCCGAGGGGACCGUCCCCUCGAUAAUGGCGAAUGGGACCCA [C19A G68A] as the variant, how does the self-cleavage read?
**A.** 0.0631

**Q.** With GGCCGGCAUGGUCCCAGCAUCCGCGCUGGCGCCGGCUGGGCAACAUUCCGAGGGGACCGUCCCCUCGGUAAUGGCGAAUGGGACCCA [C19A U23G] as the variant, how does the self-cleavage read?
**A.** 0.0923

**Q.** For GGCCGGCAUGGUCCCAGCAUCCCCGCUGGCGCCGGCUGGGCAACAUUCCGAGGGGACCGUCCCCUCGGUAAUGGCGAAUGGGACCCA [C19A U23C], which self-cleavage is on record?
**A.** 0.0519

**Q.** With GGCCGGCAUGGUCCCAGCAUCCUCGCUGGCGCCUGCUGGGCAACAUUCCGAGGGGACCGUCCCCUCGGUAAUGGCGAAUGGGACCCA [C19A G34U] as the variant, how does the self-cleavage read?
**A.** 0

**Q.** For GGCCGGCAUGGUCCCAGCAUCCUCGCUUGCGCCGGCUGGGCAACAUUCCGAGGGGACCGUCCCCUCGGUAAUGGCGAAUGGGACCCA [C19A G28U], which self-cleavage is on record?
**A.** 0.79

**Q.** For GGCCGGCAUGGUCCCAGCAUCCUCGCUGGCCCCGGCUGGGCAACAUUCCGAGGGGACCGUCCCCUCGGUAAUGGCGAAUGGGACCCA [C19A G31C], which self-cleavage is on record?
**A.** 0.141

**Q.** With GGCCGGCAUGGUCCCAGCAUCCUCGCUGGCUCCGGCUGGGCAACAUUCCGAGGGGACCGUCCCCUCGGUAAUGGCGAAUGGGACCCA [C19A G31U] as the variant, how does the self-cleavage read?
**A.** 0.192

**Q.** Which self-cleavage does the source give for GGCCGGCAUGGUCCCAGCAUCCUCGCUGGCGCCGGCUGAGCAACAUUCCGAGGGGACCGUCCCCUCGGUAAUGGCGAAUGGGACCCA [C19A G39A] here?
**A.** 0.114

**Q.** For GGCCGGCAUGGUCCCAGCAUCCUCGCUGGCGCCGGCUGCGCAACAUUCCGAGGGGACCGUCCCCUCGGUAAUGGCGAAUGGGACCCA [C19A G39C], which self-cleavage is on record?
**A.** 0

**Q.** Which self-cleavage does the source give for GGCCGGCAUGGUCCCAGCAUCCUCGCUGGCGCCGGCUGGGCAACAUUCCGAGGGGACCGUCCCCUCGGUAAUGACGAAUGGGACCCA [C19A G74A] here?
**A.** 0.0755

**Q.** Which self-cleavage does the source give for GGCCGGCAUGGUCCCAGCAUCCUCGCUGGCGCCGGCUAGGCAACAUUCCGAGGGGACCGUCCCCUCGGUAAUGGCGAAUGGGACCCA [C19A G38A] here?
**A.** 0.125

**Q.** Which self-cleavage does the source give for GGCCGGCAUGGUCCCAGCAUCCUCGCUGGCGCCGGCUGGGCAACAGUCCGAGGGGACCGUCCCCUCGGUAAUGGCGAAUGGGACCCA [C19A U46G] here?
**A.** 0.0386
